{
  "source": "paper PMC3384324",
  "about": "(Nucleic Acids Research, 2012)",
  "proteins": {"B1": {"name": "His6-PfORC1N_(1–238) (domain or fragment, Plasmodium falciparum 3D7, UniProt Q8I615 1-238, looked up)", "chain": "MTPKKKIFQNFQANDNEILSPTKKGIKLNVSKLNILNFENTIITKEKTNYEYKASLNKEIDEVLNNNNIINTHNNKKNNLNLYDYNNIKNSTHEFYIDLNEQNKQTIKYNDNKFTPINKKEKYNLDETSSSSISSSLTNISSSLTNISSSLTNISSSLSNSLDEKKKKKKIKKNNSTIINILNNNNNNSNIHHNNKHNIYNKYNISKKPQNKEIHTLPSNHQIKKKSNNTYNTCQQKM"}},
  "molecular_target": "the molecule itself",
  "assay": "cross-linking",
  "data": [
    {"protein": "B1", "values": [
      {"measurement": "stoichiometry N", "value": 2}
    ]}
  ]
}
